One data set deals with T1, ΔNp63α (Homo sapiens, UniProt Q9H3D4-2 1-586).
T1 sequence: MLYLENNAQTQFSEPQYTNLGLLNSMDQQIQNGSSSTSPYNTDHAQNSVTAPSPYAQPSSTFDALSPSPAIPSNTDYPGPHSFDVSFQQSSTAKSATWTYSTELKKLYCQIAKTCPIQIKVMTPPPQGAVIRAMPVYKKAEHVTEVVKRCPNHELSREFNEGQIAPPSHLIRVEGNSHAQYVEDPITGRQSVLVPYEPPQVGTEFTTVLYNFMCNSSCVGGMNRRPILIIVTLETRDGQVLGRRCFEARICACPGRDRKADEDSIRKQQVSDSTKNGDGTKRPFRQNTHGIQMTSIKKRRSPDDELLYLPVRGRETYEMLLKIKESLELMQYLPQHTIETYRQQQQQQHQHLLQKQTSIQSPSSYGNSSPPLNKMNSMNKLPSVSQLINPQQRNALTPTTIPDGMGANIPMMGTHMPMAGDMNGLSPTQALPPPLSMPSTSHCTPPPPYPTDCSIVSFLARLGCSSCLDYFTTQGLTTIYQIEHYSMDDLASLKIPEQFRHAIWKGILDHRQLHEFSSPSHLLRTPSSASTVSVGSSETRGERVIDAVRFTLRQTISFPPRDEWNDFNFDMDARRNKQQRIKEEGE
The data set can be described thus: anisotropy competition; 25 mM NaPi, 225 mM NaCl, 10% v/v glycerol, 5 mM DTT, 0.2 mg/mL BSA, 22°C; 20 nM labelled DNA; pH not stated for the binding assay. The settings on record: protein: recombinant; tags: N-terminal 6xHis-lipoyl-TEV tag, cleaved; chain copies: 4.

The target in data set [1] is T2, Dmp53 (Drosophila melanogaster, UniProt Q9N6D8 1-385).
T2 sequence: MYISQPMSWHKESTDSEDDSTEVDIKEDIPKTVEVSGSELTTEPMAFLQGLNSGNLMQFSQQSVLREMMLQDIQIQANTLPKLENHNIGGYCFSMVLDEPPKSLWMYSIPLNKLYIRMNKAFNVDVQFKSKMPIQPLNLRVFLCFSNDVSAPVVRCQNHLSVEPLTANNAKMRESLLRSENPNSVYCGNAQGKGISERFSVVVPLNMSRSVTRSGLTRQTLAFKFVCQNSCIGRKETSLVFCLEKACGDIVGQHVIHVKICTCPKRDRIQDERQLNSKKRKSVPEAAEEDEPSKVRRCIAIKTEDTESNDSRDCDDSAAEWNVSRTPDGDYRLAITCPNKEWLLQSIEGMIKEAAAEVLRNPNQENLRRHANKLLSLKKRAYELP
The description is as above. To be noted: protein: recombinant; tags: N-terminal 6xHis-lipoyl-TEV tag, cleaved; chain copies: 4.

A further data set has as its target T3, Drp53 (Danio rerio, UniProt P79734 1-373).
T3 sequence: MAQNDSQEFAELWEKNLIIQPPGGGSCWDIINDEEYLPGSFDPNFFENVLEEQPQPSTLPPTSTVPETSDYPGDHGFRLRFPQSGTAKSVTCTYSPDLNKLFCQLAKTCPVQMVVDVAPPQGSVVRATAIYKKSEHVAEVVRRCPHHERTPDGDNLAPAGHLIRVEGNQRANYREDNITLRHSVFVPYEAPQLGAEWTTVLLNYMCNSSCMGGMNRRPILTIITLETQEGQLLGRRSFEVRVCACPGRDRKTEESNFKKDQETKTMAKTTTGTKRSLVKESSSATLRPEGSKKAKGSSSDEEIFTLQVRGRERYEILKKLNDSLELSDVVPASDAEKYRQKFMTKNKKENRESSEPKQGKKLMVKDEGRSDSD
The data set can be described thus: fluorescence anisotropy, direct; 25 mM NaPi, 225 mM NaCl, 10% v/v glycerol, 5 mM DTT, 0.2 mg/mL BSA, 22°C; 20 nM labelled DNA; pH not stated for the binding assay. The settings on record: protein: recombinant; tags: N-terminal 6xHis-lipoyl-TEV tag, cleaved; chain copies: 4; label: 5'-Alexa488. Background: Polarisation of emitted light reports the rotation of a fluorescent probe.

Another data set has as its target T4, ΔNp63γ (Homo sapiens, UniProt Q9H3D4-6 1-393).
T4 sequence: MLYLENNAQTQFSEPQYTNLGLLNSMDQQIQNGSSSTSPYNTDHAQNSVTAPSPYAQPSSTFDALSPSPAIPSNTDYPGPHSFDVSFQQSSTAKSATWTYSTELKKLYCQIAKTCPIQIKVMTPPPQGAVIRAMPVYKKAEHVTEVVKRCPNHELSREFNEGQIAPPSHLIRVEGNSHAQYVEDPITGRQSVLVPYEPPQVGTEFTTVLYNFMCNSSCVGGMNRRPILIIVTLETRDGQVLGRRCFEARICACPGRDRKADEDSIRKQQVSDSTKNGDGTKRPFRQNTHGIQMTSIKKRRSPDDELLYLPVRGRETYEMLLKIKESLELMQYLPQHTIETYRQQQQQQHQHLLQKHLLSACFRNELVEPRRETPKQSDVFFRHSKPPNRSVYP
The data set is described as above. To be noted: protein: recombinant; tags: N-terminal 6xHis-lipoyl-TEV tag, cleaved; chain copies: 4; label: 5'-Alexa488.

The target in another data set is Hsp53 (Homo sapiens, UniProt P04637 1-393). The data set is described as above. To be noted: protein: recombinant; tags: N-terminal 6xHis-lipoyl-TEV tag, cleaved; chain copies: 4; label: 5'-Alexa488.
Sequence of Hsp53 (P04637 whole entry): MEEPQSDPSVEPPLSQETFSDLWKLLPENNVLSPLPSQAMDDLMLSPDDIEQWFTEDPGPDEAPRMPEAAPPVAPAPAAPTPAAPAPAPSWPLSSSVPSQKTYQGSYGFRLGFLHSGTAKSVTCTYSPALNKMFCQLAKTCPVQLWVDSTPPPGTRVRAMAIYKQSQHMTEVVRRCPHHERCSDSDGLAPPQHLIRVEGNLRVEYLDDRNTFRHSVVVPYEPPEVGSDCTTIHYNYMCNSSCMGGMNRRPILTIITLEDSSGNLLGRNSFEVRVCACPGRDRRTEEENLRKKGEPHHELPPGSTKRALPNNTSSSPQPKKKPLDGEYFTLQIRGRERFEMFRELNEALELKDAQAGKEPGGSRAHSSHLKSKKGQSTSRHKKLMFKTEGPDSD
Data set [2] deals with T2, Dmp53. The data set is described as above. The settings on record: protein: recombinant; tags: N-terminal 6xHis-lipoyl-TEV tag, cleaved; chain copies: 4; label: 5'-Alexa488.

Among the data in paper PMC2807882, “Conservation of DNA-binding specificity and oligomerisation properties within the p53 family” are Kd values, retold here.

B1: Ref competitor (dsDNA)
DNA 1: CGCGGACATGTCCGGACATGTCCCGC
DNA 2: GCGGGACATGTCCGGACATGTCCGCG
Consider B1, for which the figures for the Kd with ΔNp63α and with Dmp53 [1] were -7.21 log10(M) and -7.56 log10(M), respectively.

B2: Ref_Alexa488 (dsDNA)
DNA 1: GGACATGTCCGGACATGTCC
DNA 2: GGACATGTCCGGACATGTCC
Regarding B2, the Kd with Drp53 was -7.2 ± 0.03 log10(M); with ΔNp63γ, -7.17 ± 0.02 log10(M); with Hsp53 it was -7.25 ± 0.03 log10(M); with Dmp53 [2], -7.28 ± 0.03 log10(M).
